In US11946041B2, “Modification of polypeptides” (BicycleRD Limited, priority 2017, dated 2024):
Blank lines part the entries; values can stand above or below the sequence they belong to.

Legend:
CCR4 [1] = molecular target: T1, CCR4 (Homo sapiens, UniProt P51679); experiment: PathHunter eXpress CCR4 CHO-K1 β-Arrestin GPCR Assay, agonist format; assay type: cell-based
T1 construct: host or cells: CHO-K1
T1 sequence (P51679 1-360): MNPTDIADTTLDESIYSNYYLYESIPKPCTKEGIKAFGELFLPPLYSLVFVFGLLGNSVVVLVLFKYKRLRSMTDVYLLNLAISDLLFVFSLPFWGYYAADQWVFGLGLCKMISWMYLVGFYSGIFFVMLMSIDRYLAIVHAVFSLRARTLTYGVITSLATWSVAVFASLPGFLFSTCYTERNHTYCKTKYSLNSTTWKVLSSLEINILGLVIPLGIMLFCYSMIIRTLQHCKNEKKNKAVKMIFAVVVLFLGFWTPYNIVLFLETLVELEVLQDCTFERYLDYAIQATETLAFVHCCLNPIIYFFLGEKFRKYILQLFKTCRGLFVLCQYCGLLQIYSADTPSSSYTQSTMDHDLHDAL
Method: (§1) The aim of the present experiment was to analyze if if these peptides are functional using a Discoverx Assay, the Beta-Arrestin recruitment assay, to identify agonism or antagonism in the selected peptides.
(§2) Standard protocols used: • PathHunter® eXpress CCR4 CHO-K1 β-Arrestin GPCR Assay. 100 dp (1×96-well)
(§3) The experiment was carried using the manufacturer instructions.
The concentration was increased to test for response at high concentration.

CCR4 [2] = molecular target: T1, CCR4; experiment: PathHunter eXpress CCR4 CHO-K1 β-Arrestin GPCR Assay, antagonist format with CCL22; assay type: cell-based
Method: as §1, §2, §3
We therefore used the assay in an antagonist format, using 10 nM CCL22.
We repeated this experiment lowering the concentration of CCL22 from 10 nM to 1 nM to show a full inhibition curve.

EphA3 = molecular target: T2, EphA3 (Homo sapiens, UniProt P29320); experiment: EphA3 FP competition assay with 67-10-05 as labelled tracer; assay type: binding; conditions: tracer 67-10-05
T2 construct: So far all selections have been performed with soluble EphA3 ecto domain
T2 sequence (P29320 21-541 limits assumed): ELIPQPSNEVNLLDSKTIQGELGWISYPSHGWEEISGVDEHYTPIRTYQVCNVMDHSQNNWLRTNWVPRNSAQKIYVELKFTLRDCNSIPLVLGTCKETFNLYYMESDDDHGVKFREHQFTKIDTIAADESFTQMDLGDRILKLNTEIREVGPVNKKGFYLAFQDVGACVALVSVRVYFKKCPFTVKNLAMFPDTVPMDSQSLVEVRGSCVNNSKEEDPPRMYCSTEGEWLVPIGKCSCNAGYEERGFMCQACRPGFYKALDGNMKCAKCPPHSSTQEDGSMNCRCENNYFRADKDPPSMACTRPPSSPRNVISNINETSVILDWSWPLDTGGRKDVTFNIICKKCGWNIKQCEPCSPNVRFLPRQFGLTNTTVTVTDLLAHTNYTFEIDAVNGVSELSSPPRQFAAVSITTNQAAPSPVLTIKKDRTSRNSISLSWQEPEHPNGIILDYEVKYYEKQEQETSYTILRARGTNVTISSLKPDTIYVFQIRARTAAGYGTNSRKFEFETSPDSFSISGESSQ

MT1-MMP hemopexin domain = molecular target: T3, MT1-MMP hemopexin domain (Homo sapiens, UniProt P50281); experiment: MMP-14 FP competition binding between peptide families
T3 construct: Human MMP-14 PEX protein at 71.1 μM monomer
Method: FIG. 6 illustrates an analysis of MT-MMP binding ligands. A: MMP-14 FP direct binding in cell-based selections; 1 nM tracer, 60 min data. 17-98-Sar6-k(FI)-and-17-99-Sar6-k(FI)-bind with Kds of 354 nM and 501 nM respectively. B: competition binding with several combinations of peptides, both fluorescein-labelled or native, from soluble and cell based selections.
FIG. 7 illustrates the competition profile between peptide ligands isolated in this example.
• Human MMP-14 PEX protein at 71.1 μM monomer (previously 77.1 μM) (T-017-011), stored in fridge (4/7/14) • Peptides as described in Results section
Method: • Prepare assay buffer: 20 mM HEPES, 150 mM NaCl, 1 mM CaCl2), 0.1% Tween20 (pH 7.6). Buffer was filtered before use to remove precipitate. • Method according to Example 3 with tracer at 1 nM and MMP-14 PEX at concentrations detailed in the graphs • 60 min data analysed • Results are shown in FIG. 6.

Raw Data (CCR4 [1]; 0.006 nM): 23153
Raw Data (CCR4 [1]; 0.02 nM): 23757
Raw Data (CCR4 [1]; 0.06 nM): 25748
Raw Data (CCR4 [1]; 0.17 nM): 25062
Raw Data (CCR4 [1]; 0.51 nM): 25030
Raw Data (CCR4 [1]; 1.5 nM): 24736
Raw Data (CCR4 [1]; 4.6 nM): 22899
Raw Data (CCR4 [1]; 13.9 nM): 20756
Raw Data (CCR4 [1]; 41.7 nM): 20583
Raw Data (CCR4 [1]; 125 nM): 20012
Raw Data (CCR4 [1]; 375 nM): 20361
Raw Data (CCR4 [1]; high concentration, 0.001 uM): 10927
Raw Data (CCR4 [1]; high concentration, 0.003 uM): 11906
Raw Data (CCR4 [1]; high concentration, 0.008 uM): 12502
Raw Data (CCR4 [1]; high concentration, 0.023 uM): 12701
Raw Data (CCR4 [1]; high concentration, 0.1 uM): 13482
Raw Data (CCR4 [1]; high concentration, 0.2 uM): 13403
Raw Data (CCR4 [1]; high concentration, 0.6 uM): 14951
Raw Data (CCR4 [1]; high concentration, 1.9 uM): 14247
Raw Data (CCR4 [1]; high concentration, 5.6 uM): 14263
Raw Data (CCR4 [1]; high concentration, 16.7 uM): 13237
Raw Data (CCR4 [1]; high concentration, 50 uM): 13817
Raw Data (CCR4 [2]; 1 nM CCL22, 0.001 uM): 244145
Raw Data (CCR4 [2]; 1 nM CCL22, 0.003 uM): 250550
Raw Data (CCR4 [2]; 1 nM CCL22, 0.008 uM): 249215
Raw Data (CCR4 [2]; 1 nM CCL22, 0.023 uM): 247868
Raw Data (CCR4 [2]; 1 nM CCL22, 0.1 uM): 246609
Raw Data (CCR4 [2]; 1 nM CCL22, 0.2 uM): 225038
Raw Data (CCR4 [2]; 1 nM CCL22, 0.6 uM): 213774
Raw Data (CCR4 [2]; 1 nM CCL22, 1.9 uM): 213016
Raw Data (CCR4 [2]; 1 nM CCL22, 5.6 uM): 186217
Raw Data (CCR4 [2]; 1 nM CCL22, 16.7 uM): 150731
Raw Data (CCR4 [2]; 1 nM CCL22, 50 uM): 107480
Raw Data (CCR4 [2]; 10 nM CCL22, 0.001 uM): 155442
Raw Data (CCR4 [2]; 10 nM CCL22, 0.003 uM): 169611
Raw Data (CCR4 [2]; 10 nM CCL22, 0.008 uM): 142089
Raw Data (CCR4 [2]; 10 nM CCL22, 0.023 uM): 158472
Raw Data (CCR4 [2]; 10 nM CCL22, 0.1 uM): 157585
Raw Data (CCR4 [2]; 10 nM CCL22, 0.2 uM): 159872
Raw Data (CCR4 [2]; 10 nM CCL22, 0.6 uM): 147765
Raw Data (CCR4 [2]; 10 nM CCL22, 1.9 uM): 143871
Raw Data (CCR4 [2]; 10 nM CCL22, 5.6 uM): 140714
Raw Data (CCR4 [2]; 10 nM CCL22, 16.7 uM): 167890
Raw Data (CCR4 [2]; 10 nM CCL22, 50 uM): 138655
Sequence: ACQTLCNTAEDIRCA [24-16-00-N001, bicyclic peptide ligand, TBMB scaffold, from CCR4 cell-based selection]

Raw Data (CCR4 [1]; 0.006 nM): 27836
Raw Data (CCR4 [1]; 0.02 nM): 26107
Raw Data (CCR4 [1]; 0.06 nM): 29865
Raw Data (CCR4 [1]; 0.17 nM): 29746
Raw Data (CCR4 [1]; 0.51 nM): 27025
Raw Data (CCR4 [1]; 1.5 nM): 27917
Raw Data (CCR4 [1]; 4.6 nM): 25017
Raw Data (CCR4 [1]; 13.9 nM): 23972
Raw Data (CCR4 [1]; 41.7 nM): 23928
Raw Data (CCR4 [1]; 125 nM): 23999
Raw Data (CCR4 [1]; 375 nM): 22611
Raw Data (CCR4 [1]; high concentration, 0.001 uM): 11608
Raw Data (CCR4 [1]; high concentration, 0.003 uM): 11809
Raw Data (CCR4 [1]; high concentration, 0.008 uM): 13248
Raw Data (CCR4 [1]; high concentration, 0.023 uM): 13984
Raw Data (CCR4 [1]; high concentration, 0.1 uM): 14856
Raw Data (CCR4 [1]; high concentration, 0.2 uM): 15518
Raw Data (CCR4 [1]; high concentration, 0.6 uM): 15965
Raw Data (CCR4 [1]; high concentration, 1.9 uM): 17244
Raw Data (CCR4 [1]; high concentration, 5.6 uM): 17261
Raw Data (CCR4 [1]; high concentration, 16.7 uM): 16709
Raw Data (CCR4 [1]; high concentration, 50 uM): 16749
Raw Data (CCR4 [2]; 1 nM CCL22, 0.001 uM): 272073
Raw Data (CCR4 [2]; 1 nM CCL22, 0.003 uM): 292052
Raw Data (CCR4 [2]; 1 nM CCL22, 0.008 uM): 301675
Raw Data (CCR4 [2]; 1 nM CCL22, 0.023 uM): 285103
Raw Data (CCR4 [2]; 1 nM CCL22, 0.1 uM): 296795
Raw Data (CCR4 [2]; 1 nM CCL22, 0.2 uM): 246983
Raw Data (CCR4 [2]; 1 nM CCL22, 0.6 uM): 252179
Raw Data (CCR4 [2]; 1 nM CCL22, 1.9 uM): 240952
Raw Data (CCR4 [2]; 1 nM CCL22, 5.6 uM): 197381
Raw Data (CCR4 [2]; 1 nM CCL22, 16.7 uM): 125610
Raw Data (CCR4 [2]; 1 nM CCL22, 50 uM): 114156
Raw Data (CCR4 [2]; 10 nM CCL22, 0.001 uM): 164018
Raw Data (CCR4 [2]; 10 nM CCL22, 0.003 uM): 174559
Raw Data (CCR4 [2]; 10 nM CCL22, 0.008 uM): 143078
Raw Data (CCR4 [2]; 10 nM CCL22, 0.023 uM): 164921
Raw Data (CCR4 [2]; 10 nM CCL22, 0.1 uM): 153182
Raw Data (CCR4 [2]; 10 nM CCL22, 0.2 uM): 151630
Raw Data (CCR4 [2]; 10 nM CCL22, 0.6 uM): 146982
Raw Data (CCR4 [2]; 10 nM CCL22, 1.9 uM): 132070
Raw Data (CCR4 [2]; 10 nM CCL22, 5.6 uM): 148721
Raw Data (CCR4 [2]; 10 nM CCL22, 16.7 uM): 140316
Raw Data (CCR4 [2]; 10 nM CCL22, 50 uM): 153988
Sequence: ACRAVHSLRCLTTCA [24-17-00-N001, bicyclic peptide ligand, TATA scaffold, from CCR4 cell-based selection]

Ki (EphA3): 5.39 nM
Sequence: CIPDPYQCVILRQPC [67-10-05-N005, EphA3 peptide ligand, 6X6 loops, from soluble selection; used as labelled tracer]

Sequence: CKMESWECLMLHPKC [Peptide 17-98]
binding site on MT1-MMP (MT1-MMP hemopexin domain): binds to the same site as the 17-88 family (the collagen binding site)
